Laboratory results published in US6770458.

Assays:
Test in all cases: cell-based or functional assay
[1] = molecular target: CDK2 fused to the GAL4 DNA-binding domain (pAS2) (UniProt P04386)
[2] = molecular target: p53 fused to the GAL4 DNA-binding domain (pAS2) (UniProt P04386)
[3] = molecular target: Smad7 (expression construct, tag not specified)

Chain of p53 fused to the GAL4 DNA-binding domain (pAS2) (P04386 1-147): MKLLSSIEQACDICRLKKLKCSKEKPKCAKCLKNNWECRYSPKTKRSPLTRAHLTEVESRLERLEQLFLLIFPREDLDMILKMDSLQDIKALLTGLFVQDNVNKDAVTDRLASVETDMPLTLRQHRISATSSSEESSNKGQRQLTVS
Chain of CDK2 fused to the GAL4 DNA-binding domain (pAS2) (P04386 1-147): as above

Row | Substance | β-galactosidase Activity (relative scale) [1] | β-galactosidase Activity (relative scale) [2] | fold repression of (CAGA)9 MLP-Luc reporter activity in HepG2 cells [3]
1 | STRAP (Serine-Threonine Kinase Receptors Associated Protein) in pACT (from UniProt Q9Z1Z2 1-350) | 1.2 | < 1 | 
2 | FKBP12.6 in pACT (from UniProt Q9Z2I2 1-108) |  | 1.1 | 
3 | STRAP (expression construct, tag not specified) (from UniProt Q9Z1Z2 1-350) |  |  | 105 fold
